Reference: US20240116997A1 (BRIGHT PEAK THERAPEUTICS, published 2024)
Where “and” joins values, the source holds several entries; their conditions need not be identical. Equal entries are not always repeated.

Key:
[1] = biological target: T1, IL-18 receptor (IL-18Rαβ) on cells (UniProt Q13478 19-541; O95256 20-599, limits assumed); assay: cell-based or functional assay
T1 sequence (looked up) 1: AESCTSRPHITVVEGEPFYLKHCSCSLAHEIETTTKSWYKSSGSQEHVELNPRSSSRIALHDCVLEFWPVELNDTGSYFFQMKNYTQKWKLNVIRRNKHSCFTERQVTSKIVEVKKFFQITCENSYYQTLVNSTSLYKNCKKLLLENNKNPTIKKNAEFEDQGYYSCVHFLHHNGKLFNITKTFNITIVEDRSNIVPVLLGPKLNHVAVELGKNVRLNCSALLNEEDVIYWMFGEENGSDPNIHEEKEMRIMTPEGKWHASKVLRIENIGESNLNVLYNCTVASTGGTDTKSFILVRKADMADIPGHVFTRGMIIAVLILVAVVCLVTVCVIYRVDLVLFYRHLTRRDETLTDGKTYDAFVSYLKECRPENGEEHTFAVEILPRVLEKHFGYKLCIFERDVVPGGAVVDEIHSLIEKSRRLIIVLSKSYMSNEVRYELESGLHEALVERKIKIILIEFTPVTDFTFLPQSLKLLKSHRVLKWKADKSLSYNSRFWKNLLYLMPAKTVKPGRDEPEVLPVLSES
T1 sequence (looked up) 2: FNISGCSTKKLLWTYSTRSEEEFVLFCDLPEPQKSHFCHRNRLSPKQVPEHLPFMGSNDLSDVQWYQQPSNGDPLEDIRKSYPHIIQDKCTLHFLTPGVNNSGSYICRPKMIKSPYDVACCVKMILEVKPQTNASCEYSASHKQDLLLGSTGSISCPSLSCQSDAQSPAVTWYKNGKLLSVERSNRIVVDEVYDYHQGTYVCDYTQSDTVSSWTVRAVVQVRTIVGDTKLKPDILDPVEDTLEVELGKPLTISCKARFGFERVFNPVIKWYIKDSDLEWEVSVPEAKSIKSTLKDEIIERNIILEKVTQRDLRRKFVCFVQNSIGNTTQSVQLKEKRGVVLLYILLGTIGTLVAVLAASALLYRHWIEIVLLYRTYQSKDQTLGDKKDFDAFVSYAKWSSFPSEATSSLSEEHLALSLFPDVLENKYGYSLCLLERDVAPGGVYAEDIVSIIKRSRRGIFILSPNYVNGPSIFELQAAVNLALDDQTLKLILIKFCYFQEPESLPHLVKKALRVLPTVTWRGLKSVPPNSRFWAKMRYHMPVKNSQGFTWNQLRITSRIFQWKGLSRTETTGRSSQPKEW

[2] = biological target: T1, IL-18 receptor (IL-18Rαβ) on cells; assay: cell-based or functional assay; remark: listed apart in the source

B1: IL-18 polypeptide SEQ ID NO: 57 (E6K, C38S, K53A) (ligand)
chain: YFGKLKSKLSVIRNLNDQVLFIDQGNRPLFEDMTDSDSRDNAPRTIFIISMYADSQPRGMAVTISVKCEKISTLSCENKIISFKEMNPPDNIKDTKSDIIFFQRSVPGHDNKMQFESSSYEGYFLACEKERDLFKLILKKEDELGDRSIMFTVQNED
[1]
  EC50 (nM), IFNγ induction, NK-92 cells: 0.138 nM
[2]
  EC50 (pM), HEK-Blue IL-18R reporter assay: 0.86 pM and 0.53 pM

B2: C151 (V11I, D35A, C38A, K53A, C76A, C127A) (ligand)
chain: YFGKLESKLSIIRNLNDQVLFIDQGNRPLFEDMTASDARDNAPRTIFIISMYADSQPRGMAVTISVKCEKISTLSAENKIISFKEMNPPDNIKDTKSDIIFFQRSVPGHDNKMQFESSSYEGYFLAAEKERDLFKLILKKEDELGDRSIMFTVQNED
[1]
  EC50 (nM), IFNγ induction, NK-92 cells: 0.033 nM
[2]
  EC50 (pM), HEK-Blue IL-18R reporter assay: 13.1 pM

B3: C157 (V11I, C38A, K53A, C76A, C127A, D132A) (ligand)
chain: YFGKLESKLSIIRNLNDQVLFIDQGNRPLFEDMTDSDARDNAPRTIFIISMYADSQPRGMAVTISVKCEKISTLSAENKIISFKEMNPPDNIKDTKSDIIFFQRSVPGHDNKMQFESSSYEGYFLAAEKERALFKLILKKEDELGDRSIMFTVQNED
[1]
  EC50 (nM), IFNγ induction, NK-92 cells: 0.073 nM
[2]
  EC50 (pM), HEK-Blue IL-18R reporter assay: 1.95 pM

B4: C158 (V11I, C38A, K53A, C76A, G108A, C127A) (ligand)
chain: YFGKLESKLSIIRNLNDQVLFIDQGNRPLFEDMTDSDARDNAPRTIFIISMYADSQPRGMAVTISVKCEKISTLSAENKIISFKEMNPPDNIKDTKSDIIFFQRSVPAHDNKMQFESSSYEGYFLAAEKERDLFKLILKKEDELGDRSIMFTVQNED
[1]
  EC50 (nM), IFNγ induction, NK-92 cells: 0.123 nM
[2]
  EC50 (pM), HEK-Blue IL-18R reporter assay: 15.6 pM

B5: C160 (V11I, C38A, K53A, C76A, D110A, C127A) (ligand)
chain: YFGKLESKLSIIRNLNDQVLFIDQGNRPLFEDMTDSDARDNAPRTIFIISMYADSQPRGMAVTISVKCEKISTLSAENKIISFKEMNPPDNIKDTKSDIIFFQRSVPGHANKMQFESSSYEGYFLAAEKERDLFKLILKKEDELGDRSIMFTVQNED
[1]
  EC50 (nM), IFNγ induction, NK-92 cells: 0.057 nM
[2]
  EC50 (pM), HEK-Blue IL-18R reporter assay: 2.02 pM

B6: C150 (V11I, T34A, C38A, K53A, C76A, C127A) (ligand)
chain: YFGKLESKLSIIRNLNDQVLFIDQGNRPLFEDMADSDARDNAPRTIFIISMYADSQPRGMAVTISVKCEKISTLSAENKIISFKEMNPPDNIKDTKSDIIFFQRSVPGHDNKMQFESSSYEGYFLAAEKERDLFKLILKKEDELGDRSIMFTVQNED
[1]
  EC50 (nM), IFNγ induction, NK-92 cells: 0.061 nM
[2]
  EC50 (pM), HEK-Blue IL-18R reporter assay: 0.7 pM

B7: C156 (V11I, C38A, N41A, K53A, C76A, C127A) (ligand)
chain: YFGKLESKLSIIRNLNDQVLFIDQGNRPLFEDMTDSDARDAAPRTIFIISMYADSQPRGMAVTISVKCEKISTLSAENKIISFKEMNPPDNIKDTKSDIIFFQRSVPGHDNKMQFESSSYEGYFLAAEKERDLFKLILKKEDELGDRSIMFTVQNED
[1]
  EC50 (nM), IFNγ induction, NK-92 cells: 0.056 nM
[2]
  EC50 (pM), HEK-Blue IL-18R reporter assay: 11.7 pM

B8: C146 (SEQ ID NO: 79; V11I, C38A, M51G, K53A, C76A, C127A) (ligand)
chain: YFGKLESKLSIIRNLNDQVLFIDQGNRPLFEDMTDSDARDNAPRTIFIISGYADSQPRGMAVTISVKCEKISTLSAENKIISFKEMNPPDNIKDTKSDIIFFQRSVPGHDNKMQFESSSYEGYFLAAEKERDLFKLILKKEDELGDRSIMFTVQNED
[1]
  EC50 (nM), IFNγ induction, NK-92 cells: 0.079 nM
[2]
  EC50 (pM), HEK-Blue IL-18R reporter assay: 0.8 pM

B9: C161 (K8R, V11I, C38A, C76A, Q103E, C127A) (ligand)
chain: YFGKLESRLSIIRNLNDQVLFIDQGNRPLFEDMTDSDARDNAPRTIFIISMYKDSQPRGMAVTISVKCEKISTLSAENKIISFKEMNPPDNIKDTKSDIIFFERSVPGHDNKMQFESSSYEGYFLAAEKERDLFKLILKKEDELGDRSIMFTVQNED
[1]
  EC50 (nM), IFNγ induction, NK-92 cells: 0.061 nM
[2]
  EC50 (pM), HEK-Blue IL-18R reporter assay: 2.01 pM

B10: C147 (V11I, C38A, K53A, D54A, C76A, C127A) (ligand)
chain: YFGKLESKLSIIRNLNDQVLFIDQGNRPLFEDMTDSDARDNAPRTIFIISMYAASQPRGMAVTISVKCEKISTLSAENKIISFKEMNPPDNIKDTKSDIIFFQRSVPGHDNKMQFESSSYEGYFLAAEKERDLFKLILKKEDELGDRSIMFTVQNED
[1]
  EC50 (nM), IFNγ induction, NK-92 cells: 0.256 nM
[2]
  EC50 (pM), HEK-Blue IL-18R reporter assay: 1 pM

B11: C148 (F2A, V11I, C38A, K53A, C76A, C127A) (ligand)
chain: YAGKLESKLSIIRNLNDQVLFIDQGNRPLFEDMTDSDARDNAPRTIFIISMYADSQPRGMAVTISVKCEKISTLSAENKIISFKEMNPPDNIKDTKSDIIFFQRSVPGHDNKMQFESSSYEGYFLAAEKERDLFKLILKKEDELGDRSIMFTVQNED
[1]
  EC50 (nM), IFNγ induction, NK-92 cells: 0.187 nM
[2]
  EC50 (pM), HEK-Blue IL-18R reporter assay: 7.28 pM

B12: C154 (V11I, E31A, D37A, C38A, K53A, C76A, C127A) (ligand)
chain: YFGKLESKLSIIRNLNDQVLFIDQGNRPLFADMTDSAARDNAPRTIFIISMYADSQPRGMAVTISVKCEKISTLSAENKIISFKEMNPPDNIKDTKSDIIFFQRSVPGHDNKMQFESSSYEGYFLAAEKERDLFKLILKKEDELGDRSIMFTVQNED
[1]
  EC50 (nM), IFNγ induction, NK-92 cells: 0.067 nM
[2]
  EC50 (pM), HEK-Blue IL-18R reporter assay: 11.9 pM

B13: C155 (V11I, C38A, D40A, K53A, C76A, C127A) (ligand)
chain: YFGKLESKLSIIRNLNDQVLFIDQGNRPLFEDMTDSDARANAPRTIFIISMYADSQPRGMAVTISVKCEKISTLSAENKIISFKEMNPPDNIKDTKSDIIFFQRSVPGHDNKMQFESSSYEGYFLAAEKERDLFKLILKKEDELGDRSIMFTVQNED
[1]
  EC50 (nM), IFNγ induction, NK-92 cells: 0.558 nM
[2]
  EC50 (pM), HEK-Blue IL-18R reporter assay: 0.52 pM

B14: C153 (V11I, D37A, C38A, K53A, C76A, C127A) (ligand)
chain: YFGKLESKLSIIRNLNDQVLFIDQGNRPLFEDMTDSAARDNAPRTIFIISMYADSQPRGMAVTISVKCEKISTLSAENKIISFKEMNPPDNIKDTKSDIIFFQRSVPGHDNKMQFESSSYEGYFLAAEKERDLFKLILKKEDELGDRSIMFTVQNED
[1]
  EC50 (nM), IFNγ induction, NK-92 cells: 0.062 nM
[2]
  EC50 (pM), HEK-Blue IL-18R reporter assay: 14.1 pM

B15: C152 (V11I, S36A, C38A, K53A, C76A, C127A) (ligand)
chain: YFGKLESKLSIIRNLNDQVLFIDQGNRPLFEDMTDADARDNAPRTIFIISMYADSQPRGMAVTISVKCEKISTLSAENKIISFKEMNPPDNIKDTKSDIIFFQRSVPGHDNKMQFESSSYEGYFLAAEKERDLFKLILKKEDELGDRSIMFTVQNED
[1]
  EC50 (nM), IFNγ induction, NK-92 cells: 0.175 nM
[2]
  EC50 (pM), HEK-Blue IL-18R reporter assay: 0.25 pM

B16: C143 (V11I, C38A, K53A, C76A, C127A) (ligand)
chain: YFGKLESKLSIIRNLNDQVLFIDQGNRPLFEDMTDSDARDNAPRTIFIISMYADSQPRGMAVTISVKCEKISTLSAENKIISFKEMNPPDNIKDTKSDIIFFQRSVPGHDNKMQFESSSYEGYFLAAEKERDLFKLILKKEDELGDRSIMFTVQNED
[1]
  EC50 (nM), IFNγ induction, NK-92 cells: 0.012 nM
[2]
  EC50 (pM), HEK-Blue IL-18R reporter assay: 0.98 pM

B17: C149 (V11I, E31A, C38A, K53A, C76A, C127A) (ligand)
chain: YFGKLESKLSIIRNLNDQVLFIDQGNRPLFADMTDSDARDNAPRTIFIISMYADSQPRGMAVTISVKCEKISTLSAENKIISFKEMNPPDNIKDTKSDIIFFQRSVPGHDNKMQFESSSYEGYFLAAEKERDLFKLILKKEDELGDRSIMFTVQNED
[1]
  EC50 (nM), IFNγ induction, NK-92 cells: 0.015 nM
[2]
  EC50 (pM), HEK-Blue IL-18R reporter assay: 6.6 pM

B18: C159 (V11I, C38A, K53A, C76A, H109A, C127A) (ligand)
chain: YFGKLESKLSIIRNLNDQVLFIDQGNRPLFEDMTDSDARDNAPRTIFIISMYADSQPRGMAVTISVKCEKISTLSAENKIISFKEMNPPDNIKDTKSDIIFFQRSVPGADNKMQFESSSYEGYFLAAEKERDLFKLILKKEDELGDRSIMFTVQNED
[1]
  EC50 (nM), IFNγ induction, NK-92 cells: 0.028 nM
[2]
  EC50 (pM), HEK-Blue IL-18R reporter assay: 19.5 pM

B19: C144 (V11I, C38A, K53A, T63A, C76A, C127A) (ligand)
chain: YFGKLESKLSIIRNLNDQVLFIDQGNRPLFEDMTDSDARDNAPRTIFIISMYADSQPRGMAVAISVKCEKISTLSAENKIISFKEMNPPDNIKDTKSDIIFFQRSVPGHDNKMQFESSSYEGYFLAAEKERDLFKLILKKEDELGDRSIMFTVQNED
[1]
  EC50 (nM), IFNγ induction, NK-92 cells: 0.087 nM
[2]
  EC50 (pM), HEK-Blue IL-18R reporter assay: 0.17 pM

B20: C145 (V11I, C38A, K53A, S55A, C76A, C127A) (ligand)
chain: YFGKLESKLSIIRNLNDQVLFIDQGNRPLFEDMTDSDARDNAPRTIFIISMYADAQPRGMAVTISVKCEKISTLSAENKIISFKEMNPPDNIKDTKSDIIFFQRSVPGHDNKMQFESSSYEGYFLAAEKERDLFKLILKKEDELGDRSIMFTVQNED
[1]
  EC50 (nM), IFNγ induction, NK-92 cells: 0.037 nM
[2]
  EC50 (pM), HEK-Blue IL-18R reporter assay: 3.63 pM
